Data set [1] deals with 3xStrep-GFP-tagged STIL. Nature of the data set: microtubule recruitment assay in cells (MAP7-mCherry-CEP85 / GFP-STIL co-transfection, fluorescence microscopy). The following applies: U-2 OS STIL CRISPR KO cells, co-transfected for 24 h; parent: 98; read off a plot.
Data set [2] addresses T1, H. sapiens CEP85 570-656 (CEP85 cc4) (Homo sapiens (Human), UniProt Q6P2H3).
T1 chain: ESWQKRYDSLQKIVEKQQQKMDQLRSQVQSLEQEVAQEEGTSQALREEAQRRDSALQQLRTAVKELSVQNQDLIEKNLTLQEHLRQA
The data set can be described thus: ITC (25 °C, plus AUC); text gives only a range of ~14-65 µM, nM is its midpoint; affinity varies ~14-65 µM with experimental conditions; CEP85 cc4 must be dimeric to bind (dimer favoured at reduced temperature).

Data set [3] deals with T2, H. sapiens CEP85 570-656 (CEP85 cc4) (human, UniProt Q6P2H3 570-656).
T2 chain: T1 chain
Nature of the data set: ITC; 10 °C. For orientation: ITC needs no label: the signal is the heat of the interaction.

Data set [4] concerns the molecule itself. Nature of the data set: crystal structure; H. sapiens CEP85 570-656 alone; 18 °C, 100 mM Na-HEPES pH 7.7, 200 mM Na-Citrate, 36% MPD; 1.7 Å.
In data set [5] the target is T3, chicken STIL NTD (chicken (Gallus gallus), UniProt A0A8V1A6L7 1-365).
T3 construct: STIL, chicken (Gallus gallus), N-terminal domain (NTD), 66% identical to human STIL NTD; construct details in the Supplementary Information; also called Gallus gallus STIL NTD; STIL NTD WT
T3 sequence (looked up): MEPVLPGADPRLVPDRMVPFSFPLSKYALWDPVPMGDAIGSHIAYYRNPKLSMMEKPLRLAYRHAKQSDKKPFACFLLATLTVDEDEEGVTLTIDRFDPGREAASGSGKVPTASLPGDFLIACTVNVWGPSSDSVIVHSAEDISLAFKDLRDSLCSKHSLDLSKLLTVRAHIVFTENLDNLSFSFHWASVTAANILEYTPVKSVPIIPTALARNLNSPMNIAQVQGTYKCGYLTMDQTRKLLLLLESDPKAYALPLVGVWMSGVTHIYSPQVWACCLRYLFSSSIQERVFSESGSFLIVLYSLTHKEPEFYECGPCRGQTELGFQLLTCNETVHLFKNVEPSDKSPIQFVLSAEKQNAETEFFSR
Nature of the data set: ITC + AUC; recombinant chicken STIL NTD and human CEP85 cc4; affinity given as a range depending on the experimental conditions. The following applies: both partners purified.

For “3xFLAG-MAP7(17-282)-mCherry-CEP85 wild type mutant Q640A; E644A [human] / 3xStrep-GFP-tagged STIL [not stated] chain 2 Q640A, chain 2 E644A”, in data set [1], the screen value is 11 % of cells.
Consider “3xFLAG-MAP7(17-282)-mCherry-CEP85 wild type mutant Q640A [human] / 3xStrep-GFP-tagged STIL [not stated] chain 2 Q640A”, for which the screen value in data set [1] is 22 % of cells.
The same measure, in the same setting: the figure for “3xFLAG-MAP7(17-282)-mCherry-CEP85 wild type mutant E644A [human] / 3xStrep-GFP-tagged STIL [not stated] chain 2 E644A” is 47 % of cells.

B1: chicken STIL NTD (domain or fragment)
chain: T3 sequence (looked up)
One may read the Kd as the constant that tells how readily two partners part at equilibrium. Consider B1, for which the Kd was approximately 30 µM in data set [2] and 59 µM in data set [3].

B2: H. sapiens CEP85 570-656 (CEP85 cc4) (domain or fragment, human, UniProt Q6P2H3 570-656, looked up)
chain: T1 chain
notes: CEP85, human, fourth coiled-coil domain (cc4), residues 570-656; Limits are those printed for the crystallised construct; Parallel coiled-coil dimer in the crystals; monomer-dimer equilibrium in solution at room temperature; also called human CEP85 cc4; CEP85 coiled-coil
The stoichiometry N is a count of units in the complex or per binding partner. On to B2, for which, in data set [4], the “stoichiometry N” value was 2. In addition, the Kd in data set [5] was 14 to 65 µM.
